test system: MS2 coat protein; experiment: apparent KD of MS2 coat protein; designed switch direction (-1 OFF switch, 1 ON switch): 1; higher = weaker reporter binding; settings: Eterna round: R98; input ligand: FMN 200 uM
Experimental: (§1)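 RNA-MaP: designed FMN/MS2 RNA switches (84 nt design region) are transcribed on-chip within common flanks and titrated with SNAP-549-labelled MS2 coat protein (about 1-3000 nM) in 100 mM Tris pH 7.5, 80 mM KCl, 4 mM MgCl2, without or with 200 uM FMN. Median apparent KD per design; activation ratio = KD,OFF / KD,ON.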

Sequence	apparent KD of MS2 coat protein [nM]
CGAGACACUUGAGGAUAUGCUCAGGAUAACUGAGCAGAAGGCAGGGAAACCUGAGGAUCACCCAGGUAACUGGAAAGUCUCGAA [Same State NG1 - A3C, U17G Submission 5B]	46.3
UUUUUAUUUAUAGGAUAUGGAGACAUGAGGAUCACCCAUGUAUGAUAAGAUAAAUUAUGAUGUGGCCAGAAGGAUAUUAUUUUU [LRO018_SS NG 2]	85.5
GGAGGUCACAUUUACAUGAGGAUCACCCAUGUCGAAAGACAUGAGGAUAUGCUACCUAAUUGGUAGCAGAAGGCAUGGACCUCC [Mat - Same State NG 3 - JL Mod - D28]	226
GCUGCUAUCGCAGGAUAUUACAUGGGAAAUAAUACAUGAGGAUCACCCAUGUAAAAUAUCGUAAAUAAGAAGGGCGAUAGCAGC [Lame State 4 - Jieux - Same State NG 2]	239
UCGGUUUUCGCAGGAUAUGGAGGAUAUUCCCACAUGAGCAUCAGCCAUGUCUGCAUGGAAGAAGGCCAGAAGGGCGAGAACCGA [United States 1 - Jieux - Same State NG 2]	11.1
GUACGGAUCAUAGGAUAUCUGCCGGCCGGAGUUAGAGAAGGGUGAUCUAGGAUGCCACAUGAGGAUCACCCAUGUCAACAUCGC [Vemati]	20.9
GCUUGCGACGAAGGAUAUGGGUGCCUAAACACGAGGAUCACCCGUGUACAGGAAGCUAAAUGCUCUCAGAAGGUCGUCGCAGGC [United States 10 - Jieux - Same State NG 2]	18.4
UGAUCGCUUGGAGGAUAUCCAACUAUCCUAGUUGGAGAAGGCCAAGCUACAGAGCUAAGCUUGGAAGUCACUUCCGAUCAACAC [pwkr ssNG1 F9.4.2]	54.9
UUAUAAAAUAUAGGAUAUGGAAACAUGAGGAUCACCCAUGUAUGAUAAGAUAAAUUAUGAUAUAGCCAGAAGGAUACAAUAUAU [LRO011_SS NG 2]	28.9
CCUUGAUAAUAUCUUCACAUGAGGAUCACCCAUGUCGCUCGACAGGAUAUAUUUUAUUUGUUUAAGUAGAAGGGUCGCAGAUUC [LRO020_SS NG 3]	142

same assay, conditions: Eterna round: R98; input ligand: none

Sequence	apparent KD of MS2 coat protein [nM]
CGAGACACUUGAGGAUAUGCUCAGGAUAACUGAGCAGAAGGCAGGGAAACCUGAGGAUCACCCAGGUAACUGGAAAGUCUCGAA [Same State NG1 - A3C, U17G Submission 5B]	144
UUUUUAUUUAUAGGAUAUGGAGACAUGAGGAUCACCCAUGUAUGAUAAGAUAAAUUAUGAUGUGGCCAGAAGGAUAUUAUUUUU [LRO018_SS NG 2]	76.4
GGAGGUCACAUUUACAUGAGGAUCACCCAUGUCGAAAGACAUGAGGAUAUGCUACCUAAUUGGUAGCAGAAGGCAUGGACCUCC [Mat - Same State NG 3 - JL Mod - D28]	287
GCUGCUAUCGCAGGAUAUUACAUGGGAAAUAAUACAUGAGGAUCACCCAUGUAAAAUAUCGUAAAUAAGAAGGGCGAUAGCAGC [Lame State 4 - Jieux - Same State NG 2]	1210
UCGGUUUUCGCAGGAUAUGGAGGAUAUUCCCACAUGAGCAUCAGCCAUGUCUGCAUGGAAGAAGGCCAGAAGGGCGAGAACCGA [United States 1 - Jieux - Same State NG 2]	13.6
GUACGGAUCAUAGGAUAUCUGCCGGCCGGAGUUAGAGAAGGGUGAUCUAGGAUGCCACAUGAGGAUCACCCAUGUCAACAUCGC [Vemati]	24.2
GCUUGCGACGAAGGAUAUGGGUGCCUAAACACGAGGAUCACCCGUGUACAGGAAGCUAAAUGCUCUCAGAAGGUCGUCGCAGGC [United States 10 - Jieux - Same State NG 2]	36
UGAUCGCUUGGAGGAUAUCCAACUAUCCUAGUUGGAGAAGGCCAAGCUACAGAGCUAAGCUUGGAAGUCACUUCCGAUCAACAC [pwkr ssNG1 F9.4.2]	33.6
UUAUAAAAUAUAGGAUAUGGAAACAUGAGGAUCACCCAUGUAUGAUAAGAUAAAUUAUGAUAUAGCCAGAAGGAUACAAUAUAU [LRO011_SS NG 2]	28
CCUUGAUAAUAUCUUCACAUGAGGAUCACCCAUGUCGCUCGACAGGAUAUAUUUUAUUUGUUUAAGUAGAAGGGUCGCAGAUUC [LRO020_SS NG 3]	136

test system: MS2 coat protein; experiment: apparent KD of MS2 coat protein; designed switch direction (-1 OFF switch, 1 ON switch): -1; higher = weaker reporter binding; settings: Eterna round: R98; input ligand: FMN 200 uM
Experimental: as §1

Sequence	apparent KD of MS2 coat protein [nM]
AGACUCAGAUGGUGCCAGCUUGCACAUGAGGAUCACCCAUGUCAGGAUAUCUUCGCUCCGGGAGAAGAGAAGGGACAAGAAAUU [Anenan]	165
UCGAACGGAAACAAAGUCAAUAGACAUGAGGAUCACCCAUGUAAGGAUAUGCCUACUAAAAGUAGGCAGAAGGUACGCGUUCGA [Contusion 5 - Jieux - Exclusion NG 3]	27.2
GUCAGGAAUGUAGGAUAUCGUCAGGAAUACUGGCGAGAAGGACAUGAGGAUCACCCAUGUAAAAUGAAAGAUAAUAAACCUGGC [Exclsuion NG 1/2-C1]	31.9
CACCGUUACAGAGGAUAUGACACAUGAGGAUCACCCAUGUAAUAAAUGAGAAUUUCGAAUGUAACUCAGAAGGCUGGAAUCGGC [JieuxMod 1 - Jieux - Exclusion NG 2]	61.6
GCGGGAUGAGUCGUUGGUUCACAUGAGGAUCACCCAUGUAGGGAGGAUAUGCAUCUGGUCCCGGAGCAGAAGGCCCUGCAUCGA [Raedxea]	1540
CCGGGCCCGGGAGGAUAUACAUGAGGAUCACCCAUGUAUUCUCGGCCCGGCGAAAGCCGGGCCAUGUAGAAGGCCCGGGCCCGG [high melting point]	103

same assay, conditions: Eterna round: R98; input ligand: none

Sequence	apparent KD of MS2 coat protein [nM]
AGACUCAGAUGGUGCCAGCUUGCACAUGAGGAUCACCCAUGUCAGGAUAUCUUCGCUCCGGGAGAAGAGAAGGGACAAGAAAUU [Anenan]	104
UCGAACGGAAACAAAGUCAAUAGACAUGAGGAUCACCCAUGUAAGGAUAUGCCUACUAAAAGUAGGCAGAAGGUACGCGUUCGA [Contusion 5 - Jieux - Exclusion NG 3]	18.3
GUCAGGAAUGUAGGAUAUCGUCAGGAAUACUGGCGAGAAGGACAUGAGGAUCACCCAUGUAAAAUGAAAGAUAAUAAACCUGGC [Exclsuion NG 1/2-C1]	18.7
CACCGUUACAGAGGAUAUGACACAUGAGGAUCACCCAUGUAAUAAAUGAGAAUUUCGAAUGUAACUCAGAAGGCUGGAAUCGGC [JieuxMod 1 - Jieux - Exclusion NG 2]	25.9
GCGGGAUGAGUCGUUGGUUCACAUGAGGAUCACCCAUGUAGGGAGGAUAUGCAUCUGGUCCCGGAGCAGAAGGCCCUGCAUCGA [Raedxea]	555
CCGGGCCCGGGAGGAUAUACAUGAGGAUCACCCAUGUAUUCUCGGCCCGGCGAAAGCCGGGCCAUGUAGAAGGCCCGGGCCCGG [high melting point]	24.3

Source: the supplement of paper PMC9170038
